Source: patent US20240116985A1, “STAPLED PEPTIDES AND METHODS THEREOF” (priority 2020, published 2024)
Starred links: 1 amine or outer side, 2 acyl side, 3 side chain; linkers in the order of their positions; H or OH if unused. Positions of bridges follow the written chain, without caps; N, C: chain ends. Non-standard residues stand in square brackets, D forms with d. Primed or numbered codes have the meaning given here. PyrS2″ = (S)-3-amino-1-((pent-4-en-1-yloxy)carbonyl)pyrrolidine-3-carboxylic acid (stapling residue), C=CCCCOC(=O)N1CC[C@@](N[*:1])(C(=O)[*:2])C1; B5(4) = 2,2-bis(4-pentenyl)glycine = 2-amino-2-(pent-4-en-1-yl)hept-6-enoic acid (stitching residue), C=CCCCC(CCCC=C)(N[*:1])C(=O)[*:2]; B5(5) = 2,2-bis(4-pentenyl)glycine, 2-amino-2-(pent-4-en-1-yl)hept-6-enoic acid (stitching residue), C=CCCCC(CCCC=C)(N[*:1])C(=O)[*:2]; Phe(2-Cl) = N[C@@H](Cc1ccccc1Cl)C(=O)O; Phe(2-F) = N[C@@H](Cc1ccccc1F)C(=O)O; Bta = N[C@@H](Cc1csc2ccccc12)C(=O)O; αAllylPro = C=CC[C@@]1(C(=O)O)CCCN1; tBuAla = CC(C)(C)C[C@H](N)C(=O)O; 3Thi = N[C@@H](Cc1ccsc1)C(=O)O; Aib = CC(C)(N)C(=O)O

Target: B-cat-Halo (beta-catenin HaloTag NanoBRET construct expressed in HEK293 cells) (UniProt P35222)
Sequence (P35222 whole entry): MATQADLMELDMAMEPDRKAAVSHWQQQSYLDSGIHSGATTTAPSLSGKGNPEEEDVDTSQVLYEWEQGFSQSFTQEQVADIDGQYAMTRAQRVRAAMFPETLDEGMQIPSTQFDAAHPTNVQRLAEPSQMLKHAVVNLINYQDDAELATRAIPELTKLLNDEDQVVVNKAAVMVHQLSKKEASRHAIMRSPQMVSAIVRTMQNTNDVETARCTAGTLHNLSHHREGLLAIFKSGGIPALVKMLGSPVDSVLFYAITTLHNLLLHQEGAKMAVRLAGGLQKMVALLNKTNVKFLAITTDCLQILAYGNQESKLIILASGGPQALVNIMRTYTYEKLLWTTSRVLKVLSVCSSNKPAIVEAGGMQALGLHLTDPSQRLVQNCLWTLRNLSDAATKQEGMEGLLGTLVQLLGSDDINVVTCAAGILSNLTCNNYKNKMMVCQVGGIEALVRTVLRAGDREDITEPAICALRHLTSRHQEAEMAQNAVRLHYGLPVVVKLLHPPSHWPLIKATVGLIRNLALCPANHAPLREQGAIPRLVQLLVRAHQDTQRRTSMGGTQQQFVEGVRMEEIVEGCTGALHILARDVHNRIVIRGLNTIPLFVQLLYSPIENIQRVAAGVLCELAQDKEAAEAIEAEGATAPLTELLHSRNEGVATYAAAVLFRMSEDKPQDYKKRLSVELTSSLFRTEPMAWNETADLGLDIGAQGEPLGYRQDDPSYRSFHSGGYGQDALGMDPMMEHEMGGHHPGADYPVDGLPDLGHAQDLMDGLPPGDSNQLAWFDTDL
Test: NanoBRET in HEK293 cells, Bcat-Halo / TCF4-Luc (competitor TCF4-Luc); absolute IC50

Ac-[αAllylPro]D[tBuAla][B5(5)]NT[Aib]AFH[PyrS2″][3Thi][Bta]Q-NH2 (staple 1-4, 4-11) [I-2410] and Ac-[αAllylPro]D[tBuAla][B5(5)]NT[Aib]AFN[PyrS2″][3Thi][Bta]N-NH2 (staple 1-4, 4-11) [I-2415] cannot be ordered by IC50: over 20000 nM for the first, over 20000 nM for the second.

Ac-[αAllylPro]D[tBuAla][B5(5)]NT[Aib]AFN[PyrS2″][3Thi][Bta]T-NH2 (staple 1-4, 4-11) [I-2416] and Ac-[αAllylPro]D[tBuAla][B5(5)]NT[Aib]AFN[PyrS2″][3Thi][Bta]H-NH2 (staple 1-4, 4-11) [I-2414] cannot be ordered by IC50: over 20000 nM for the first, over 20000 nM for the second.

Target: Bcat-Halo (UniProt P35222)
Sequence (P35222 whole entry): as above
Test: NanoBRET absolute IC50 in HEK293 cells; Bcat-Halo, competitor TCF4-Luc

Ac-[αAllylPro]D[tBuAla][B5(5)]DDAAFT[PyrS2″][Phe(2-Cl)][Bta][dT]-NH2 (staple 1-4, 4-11) [I-1033] and Ac-[αAllylPro]D[tBuAla][B5(5)]DEAAFL[PyrS2″][3Thi][Bta]Q-NH2 (staple 1-4, 4-11) [I-1437] are within 1.5-fold of each other in IC50: 8600 nM for the first, 7100 nM for the second.

Going from Ac-[αAllylPro]D[tBuAla][B5(5)]DDAAFS[PyrS2″][Phe(2-Cl)][Bta][dT]-NH2 (staple 1-4, 4-11) [I-1032] to Ac-[αAllylPro]D[tBuAla][B5(5)]DEAAFS[PyrS2″][Phe(2-Cl)][Bta][dT]-NH2 (staple 1-4, 4-11) [I-1036], the IC50 rises from 10400 nM to 16600 nM (1.6-fold).

Ac-[αAllylPro]D[tBuAla][B5(4)]DSAAFL[PyrS2″][3Thi][Bta]Q-NH2 (staple 1-4, 4-11) [I-1443] and Ac-[αAllylPro]D[tBuAla][B5(5)]DNAAFT[PyrS2″][Phe(2-F)][Bta]Q-NH2 (staple 1-4, 4-11) [I-1022] are within 1.5-fold of each other in IC50: 9500 nM for the first, 13700 nM for the second.

Going from Ac-[αAllylPro]D[tBuAla][B5(5)]DQAAFL[PyrS2″][3Thi][Bta]Q-NH2 (staple 1-4, 4-11) [I-1440] to Ac-[αAllylPro]D[tBuAla][B5(5)]DDAAFT[PyrS2″][Phe(2-F)][Bta]Q-NH2 (staple 1-4, 4-11) [I-1021], the IC50 falls from 20700 nM to 11500 nM (1.8-fold). The second is the more potent here.

Binder Ac-[αAllylPro]D[tBuAla][B5(5)]DEAAFT[PyrS2″][Phe(2-Cl)][Bta][dT]-NH2 (staple 1-4, 4-11) [I-1037] has an IC50 of 4400 nM.

Target: full-length beta-Catenin (Uniprot ID P35222) (Homo sapiens (Human)) (UniProt P35222)
Test: fluorescence polarization competition; full-length beta-catenin, competitor 5FAM-TCF4(10-53) probe

First: Ac-[αAllylPro]D[tBuAla][B5(5)]DEAAFL[PyrS2″][3Thi][Bta]Q-NH2 (staple 1-4, 4-11) [I-1437]
Second: Ac-[αAllylPro]D[tBuAla][B5(5)]NT[Aib]AFH[PyrS2″][3Thi][Bta]Q-NH2 (staple 1-4, 4-11) [I-2410]
The IC50 of the first is 43-fold lower: 7 nM for the first, 304 nM for the second. The first is the more potent here.

Ac-[αAllylPro]D[tBuAla][B5(5)]NT[Aib]AFN[PyrS2″][3Thi][Bta]N-NH2 (staple 1-4, 4-11) [I-2415] and Ac-[αAllylPro]D[tBuAla][B5(5)]NT[Aib]AFN[PyrS2″][3Thi][Bta]T-NH2 (staple 1-4, 4-11) [I-2416] are within 1.5-fold of each other in IC50: 147 nM for the first, 133 nM for the second.

Ac-[αAllylPro]D[tBuAla][B5(4)]DSAAFL[PyrS2″][3Thi][Bta]Q-NH2 (staple 1-4, 4-11) [I-1443] and Ac-[αAllylPro]D[tBuAla][B5(5)]DQAAFL[PyrS2″][3Thi][Bta]Q-NH2 (staple 1-4, 4-11) [I-1440] are within 1.5-fold of each other in IC50: 24 nM for the first, 26 nM for the second.

Binder Ac-[αAllylPro]D[tBuAla][B5(5)]NT[Aib]AFN[PyrS2″][3Thi][Bta]H-NH2 (staple 1-4, 4-11) [I-2414] has an IC50 of 7 nM.

Target: full-length beta-Catenin (Uniprot ID P35222) (Homo sapiens (Human)) (UniProt P35222)
Test: fluorescence polarization competition; displaces 5FAM-TCF4(10-53) from full-length beta-catenin
Target sequence in this assay (P35222 2-781 limits assumed): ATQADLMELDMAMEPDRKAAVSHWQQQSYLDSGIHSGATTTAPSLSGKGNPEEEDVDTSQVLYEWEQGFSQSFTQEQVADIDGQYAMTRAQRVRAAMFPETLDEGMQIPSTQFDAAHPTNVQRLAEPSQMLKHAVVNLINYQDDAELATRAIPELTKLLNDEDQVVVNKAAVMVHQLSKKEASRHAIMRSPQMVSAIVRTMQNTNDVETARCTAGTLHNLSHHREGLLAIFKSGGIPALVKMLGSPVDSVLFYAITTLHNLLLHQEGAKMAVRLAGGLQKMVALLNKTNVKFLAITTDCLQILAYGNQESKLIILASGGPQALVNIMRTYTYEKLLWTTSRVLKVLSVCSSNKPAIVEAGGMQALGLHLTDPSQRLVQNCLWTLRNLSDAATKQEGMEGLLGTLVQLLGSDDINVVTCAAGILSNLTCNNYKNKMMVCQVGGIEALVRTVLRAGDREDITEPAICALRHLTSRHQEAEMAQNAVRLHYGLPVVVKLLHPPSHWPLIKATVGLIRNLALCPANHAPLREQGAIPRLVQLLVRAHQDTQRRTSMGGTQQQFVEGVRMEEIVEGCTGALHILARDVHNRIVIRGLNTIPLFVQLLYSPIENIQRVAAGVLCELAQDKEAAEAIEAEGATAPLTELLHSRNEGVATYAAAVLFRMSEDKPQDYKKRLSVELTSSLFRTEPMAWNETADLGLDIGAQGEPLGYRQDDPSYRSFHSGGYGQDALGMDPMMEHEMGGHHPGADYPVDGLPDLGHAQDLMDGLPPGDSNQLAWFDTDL

Going from Ac-[αAllylPro]D[tBuAla][B5(5)]DNAAFT[PyrS2″][Phe(2-F)][Bta]Q-NH2 (staple 1-4, 4-11) [I-1022] to Ac-[αAllylPro]D[tBuAla][B5(5)]DDAAFT[PyrS2″][Phe(2-F)][Bta]Q-NH2 (staple 1-4, 4-11) [I-1021], the EC50 falls from 33 nM to 5 nM (6.6-fold).

Target: beta-catenin (Homo sapiens (Human)) (UniProt P35222)
Sequence (P35222 whole entry): as the sequence (P35222 whole entry) above
Test: fluorescence polarization competition; full-length beta-catenin with 5FAM-TCF4(10-53) probe as competitor

Going from Ac-[αAllylPro]D[tBuAla][B5(5)]DEAAFL[PyrS2″][3Thi][Bta]Q-NH2 (staple 1-4, 4-11) [I-1437] to Ac-[αAllylPro]D[tBuAla][B5(4)]DSAAFL[PyrS2″][3Thi][Bta]Q-NH2 (staple 1-4, 4-11) [I-1443], the EC50 rises from 7 nM to 24 nM (3.4-fold).

Binder Ac-[αAllylPro]D[tBuAla][B5(5)]DQAAFL[PyrS2″][3Thi][Bta]Q-NH2 (staple 1-4, 4-11) [I-1440] has an EC50 of 26 nM.

Target: Bcat-Halo (UniProt P35222)
Test: NanoBRET Abs IC50, Bcat-Halo/TCF4-Luc in HEK293 cells

Ac-[αAllylPro]D[tBuAla][B5(5)]DDAAFT[PyrS2″][Phe(2-F)][Bta]Q-NH2 (staple 1-4, 4-11) [I-1021] was tested, and the IC50 was 11500 nM.

Target: full-length beta-Catenin (Uniprot ID P35222) (Homo sapiens (Human)) (UniProt P35222)
Test: fluorescence polarization competition; 10 nM full-length beta-catenin + 10 nM 5FAM-TCF4 10-53 as competitor probe
Target sequence in this assay (P35222 2-781 limits assumed): as the sequence (P35222 2-781 limits assumed) above

Compared with Ac-[αAllylPro]D[tBuAla][B5(5)]DDAAFT[PyrS2″][Phe(2-Cl)][Bta][dT]-NH2 (staple 1-4, 4-11) [I-1033], Ac-[αAllylPro]D[tBuAla][B5(5)]DDAAFS[PyrS2″][Phe(2-Cl)][Bta][dT]-NH2 (staple 1-4, 4-11) [I-1032] is 1.5-fold higher in EC50: 10 nM for the first, 15 nM for the second.

Ac-[αAllylPro]D[tBuAla][B5(5)]DEAAFS[PyrS2″][Phe(2-Cl)][Bta][dT]-NH2 (staple 1-4, 4-11) [I-1036] and Ac-[αAllylPro]D[tBuAla][B5(5)]DEAAFT[PyrS2″][Phe(2-Cl)][Bta][dT]-NH2 (staple 1-4, 4-11) [I-1037] are within 1.5-fold of each other in EC50: 29 nM for the first, 30 nM for the second.

Target: full-length beta-Catenin (Uniprot ID P35222) (Homo sapiens (Human)) (UniProt P35222)
Test: fluorescence polarization competition; full-length beta-catenin, competitor 5FAM-TCF4 10-53
Target sequence in this assay (P35222 whole entry, one chain of several): as the sequence (P35222 whole entry) above

First: Ac-[αAllylPro]D[tBuAla][B5(5)]DDAAFT[PyrS2″][Phe(2-Cl)][Bta][dT]-NH2 (staple 1-4, 4-11) [I-1033]
Second: Ac-[αAllylPro]D[tBuAla][B5(5)]DDAAFS[PyrS2″][Phe(2-Cl)][Bta][dT]-NH2 (staple 1-4, 4-11) [I-1032]
The IC50 of the first is 1.5-fold lower: 10 nM for the first, 15 nM for the second.

Ac-[αAllylPro]D[tBuAla][B5(5)]DEAAFS[PyrS2″][Phe(2-Cl)][Bta][dT]-NH2 (staple 1-4, 4-11) [I-1036] and Ac-[αAllylPro]D[tBuAla][B5(5)]DNAAFT[PyrS2″][Phe(2-F)][Bta]Q-NH2 (staple 1-4, 4-11) [I-1022] are within 1.5-fold of each other in IC50: 29 nM for the first, 33 nM for the second.

First: Ac-[αAllylPro]D[tBuAla][B5(5)]DDAAFT[PyrS2″][Phe(2-F)][Bta]Q-NH2 (staple 1-4, 4-11) [I-1021]
Second: Ac-[αAllylPro]D[tBuAla][B5(5)]DEAAFT[PyrS2″][Phe(2-Cl)][Bta][dT]-NH2 (staple 1-4, 4-11) [I-1037]
The IC50 of the first is 6-fold lower: 5 nM for the first, 30 nM for the second. The first is the more potent here.
